Numbered stars: 1 amine (or outer) side, 2 acyl side, 3 side chain; on linkers, the order of the positions; unused ones are H or OH. * marks the point of attachment. C20 diacid = O=C(O)CCCCCCCCCCCCCCCCCCC(=O)*; γGlu = O=C(O)[C@H](CCC(=O)[*:2])N[*:1]; C12 diacid = O=C(O)CCCCCCCCCCC(=O)*
T1: human amylin 3(a) receptor (human calcitonin receptor co-expressed with RAMP-3) (human, UniProt P30988 25-474; O60896 24-148, limits assumed)
T1 sequence (looked up) 1: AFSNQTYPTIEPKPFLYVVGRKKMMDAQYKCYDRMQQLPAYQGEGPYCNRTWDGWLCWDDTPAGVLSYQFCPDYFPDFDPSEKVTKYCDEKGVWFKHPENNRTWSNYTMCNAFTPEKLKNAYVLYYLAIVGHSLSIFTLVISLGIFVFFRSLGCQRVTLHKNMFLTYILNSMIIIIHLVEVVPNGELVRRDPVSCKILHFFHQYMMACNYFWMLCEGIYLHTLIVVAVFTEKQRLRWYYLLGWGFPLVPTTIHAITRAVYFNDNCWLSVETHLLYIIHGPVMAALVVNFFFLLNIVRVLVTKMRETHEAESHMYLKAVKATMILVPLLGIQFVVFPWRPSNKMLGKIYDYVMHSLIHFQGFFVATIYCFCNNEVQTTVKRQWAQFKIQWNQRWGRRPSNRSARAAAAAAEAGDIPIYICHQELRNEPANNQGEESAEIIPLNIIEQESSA
T1 sequence (looked up) 2: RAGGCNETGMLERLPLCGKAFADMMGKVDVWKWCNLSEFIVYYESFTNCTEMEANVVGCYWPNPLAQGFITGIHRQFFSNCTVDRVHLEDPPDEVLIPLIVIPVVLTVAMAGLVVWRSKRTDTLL

T2: human calcitonin receptor (human, UniProt P30988 25-474)
T2 sequence (looked up): T1 sequence (looked up) 1

B1: [N-terminal(C20 diacid-gGlu), des1, 30S, 31G, 33L]mimylin (peptide)
peptide: {C20 diacid-γGlu}-ASELSTAALGRLSAELHELATLPRTETGSGSL-NH2
SMILES: CC(C)C[C@H](NC(=O)[C@H](CO)NC(=O)CNC(=O)[C@H](CO)NC(=O)CNC(=O)[C@@H](NC(=O)[C@H](CCC(=O)O)NC(=O)[C@@H](NC(=O)[C@H](CCCNC(=N)N)NC(=O)[C@@H]1CCCN1C(=O)[C@H](CC(C)C)NC(=O)[C@@H](NC(=O)[C@H](C)NC(=O)[C@H](CC(C)C)NC(=O)[C@H](CCC(=O)O)NC(=O)[C@H](Cc1c[nH]cn1)NC(=O)[C@H](CC(C)C)NC(=O)[C@H](CCC(=O)O)NC(=O)[C@H](C)NC(=O)[C@H](CO)NC(=O)[C@H](CC(C)C)NC(=O)[C@H](CCCNC(=N)N)NC(=O)CNC(=O)[C@H](CC(C)C)NC(=O)[C@H](C)NC(=O)[C@H](C)NC(=O)[C@@H](NC(=O)[C@H](CO)NC(=O)[C@H](CC(C)C)NC(=O)[C@H](CCC(=O)O)NC(=O)[C@H](CO)NC(=O)[C@H](C)NC(=O)CC[C@H](NC(=O)CCCCCCCCCCCCCCCCCCC(=O)O)C(=O)O)[C@@H](C)O)[C@@H](C)O)[C@@H](C)O)[C@@H](C)O)C(N)=O
B2: [N-terminal(C20 diacid-gGlu), des1, 30S, 31G, 33F]mimylin (peptide)
peptide: {C20 diacid-γGlu}-ASELSTAALGRLSAELHELATLPRTETGSGSF-NH2
SMILES: CC(C)C[C@H](NC(=O)[C@H](C)NC(=O)[C@H](C)NC(=O)[C@@H](NC(=O)[C@H](CO)NC(=O)[C@H](CC(C)C)NC(=O)[C@H](CCC(=O)O)NC(=O)[C@H](CO)NC(=O)[C@H](C)NC(=O)CC[C@H](NC(=O)CCCCCCCCCCCCCCCCCCC(=O)O)C(=O)O)[C@@H](C)O)C(=O)NCC(=O)N[C@@H](CCCNC(=N)N)C(=O)N[C@@H](CC(C)C)C(=O)N[C@@H](CO)C(=O)N[C@@H](C)C(=O)N[C@@H](CCC(=O)O)C(=O)N[C@@H](CC(C)C)C(=O)N[C@@H](Cc1c[nH]cn1)C(=O)N[C@@H](CCC(=O)O)C(=O)N[C@@H](CC(C)C)C(=O)N[C@@H](C)C(=O)N[C@H](C(=O)N[C@@H](CC(C)C)C(=O)N1CCC[C@H]1C(=O)N[C@@H](CCCNC(=N)N)C(=O)N[C@H](C(=O)N[C@@H](CCC(=O)O)C(=O)N[C@H](C(=O)NCC(=O)N[C@@H](CO)C(=O)NCC(=O)N[C@@H](CO)C(=O)N[C@@H](Cc1ccccc1)C(N)=O)[C@@H](C)O)[C@@H](C)O)[C@@H](C)O
B3: [N-terminal(C20 diacid-gGlu), des1, 30S, 31G, 33H]mimylin (peptide)
peptide: {C20 diacid-γGlu}-ASELSTAALGRLSAELHELATLPRTETGSGSH-NH2
SMILES: CC(C)C[C@H](NC(=O)[C@H](C)NC(=O)[C@H](C)NC(=O)[C@@H](NC(=O)[C@H](CO)NC(=O)[C@H](CC(C)C)NC(=O)[C@H](CCC(=O)O)NC(=O)[C@H](CO)NC(=O)[C@H](C)NC(=O)CC[C@H](NC(=O)CCCCCCCCCCCCCCCCCCC(=O)O)C(=O)O)[C@@H](C)O)C(=O)NCC(=O)N[C@@H](CCCNC(=N)N)C(=O)N[C@@H](CC(C)C)C(=O)N[C@@H](CO)C(=O)N[C@@H](C)C(=O)N[C@@H](CCC(=O)O)C(=O)N[C@@H](CC(C)C)C(=O)N[C@@H](Cc1c[nH]cn1)C(=O)N[C@@H](CCC(=O)O)C(=O)N[C@@H](CC(C)C)C(=O)N[C@@H](C)C(=O)N[C@H](C(=O)N[C@@H](CC(C)C)C(=O)N1CCC[C@H]1C(=O)N[C@@H](CCCNC(=N)N)C(=O)N[C@H](C(=O)N[C@@H](CCC(=O)O)C(=O)N[C@H](C(=O)NCC(=O)N[C@@H](CO)C(=O)NCC(=O)N[C@@H](CO)C(=O)N[C@@H](Cc1c[nH]cn1)C(N)=O)[C@@H](C)O)[C@@H](C)O)[C@@H](C)O
B4: [N-terminal(C20 diacid-gGlu), des1, 30S, 31G, 33Y]mimylin (peptide)
peptide: {C20 diacid-γGlu}-ASELSTAALGRLSAELHELATLPRTETGSGSY-NH2
SMILES: CC(C)C[C@H](NC(=O)[C@H](C)NC(=O)[C@H](C)NC(=O)[C@@H](NC(=O)[C@H](CO)NC(=O)[C@H](CC(C)C)NC(=O)[C@H](CCC(=O)O)NC(=O)[C@H](CO)NC(=O)[C@H](C)NC(=O)CC[C@H](NC(=O)CCCCCCCCCCCCCCCCCCC(=O)O)C(=O)O)[C@@H](C)O)C(=O)NCC(=O)N[C@@H](CCCNC(=N)N)C(=O)N[C@@H](CC(C)C)C(=O)N[C@@H](CO)C(=O)N[C@@H](C)C(=O)N[C@@H](CCC(=O)O)C(=O)N[C@@H](CC(C)C)C(=O)N[C@@H](Cc1c[nH]cn1)C(=O)N[C@@H](CCC(=O)O)C(=O)N[C@@H](CC(C)C)C(=O)N[C@@H](C)C(=O)N[C@H](C(=O)N[C@@H](CC(C)C)C(=O)N1CCC[C@H]1C(=O)N[C@@H](CCCNC(=N)N)C(=O)N[C@H](C(=O)N[C@@H](CCC(=O)O)C(=O)N[C@H](C(=O)NCC(=O)N[C@@H](CO)C(=O)NCC(=O)N[C@@H](CO)C(=O)N[C@@H](Cc1ccc(O)cc1)C(N)=O)[C@@H](C)O)[C@@H](C)O)[C@@H](C)O
B5: [N-terminal(C20 diacid-gGlu), des1, 30S, 31G, 33G]mimylin (peptide)
peptide: {C20 diacid-γGlu}-ASELSTAALGRLSAELHELATLPRTETGSGSG-NH2
SMILES: CC(C)C[C@H](NC(=O)[C@H](C)NC(=O)[C@H](C)NC(=O)[C@@H](NC(=O)[C@H](CO)NC(=O)[C@H](CC(C)C)NC(=O)[C@H](CCC(=O)O)NC(=O)[C@H](CO)NC(=O)[C@H](C)NC(=O)CC[C@H](NC(=O)CCCCCCCCCCCCCCCCCCC(=O)O)C(=O)O)[C@@H](C)O)C(=O)NCC(=O)N[C@@H](CCCNC(=N)N)C(=O)N[C@@H](CC(C)C)C(=O)N[C@@H](CO)C(=O)N[C@@H](C)C(=O)N[C@@H](CCC(=O)O)C(=O)N[C@@H](CC(C)C)C(=O)N[C@@H](Cc1c[nH]cn1)C(=O)N[C@@H](CCC(=O)O)C(=O)N[C@@H](CC(C)C)C(=O)N[C@@H](C)C(=O)N[C@H](C(=O)N[C@@H](CC(C)C)C(=O)N1CCC[C@H]1C(=O)N[C@@H](CCCNC(=N)N)C(=O)N[C@H](C(=O)N[C@@H](CCC(=O)O)C(=O)N[C@H](C(=O)NCC(=O)N[C@@H](CO)C(=O)NCC(=O)N[C@@H](CO)C(=O)NCC(N)=O)[C@@H](C)O)[C@@H](C)O)[C@@H](C)O
B6: [N-terminal(C20 diacid-gGlu), des1, 30S, 31G, 33A]mimylin (peptide)
peptide: {C20 diacid-γGlu}-ASELSTAALGRLSAELHELATLPRTETGSGSA-NH2
SMILES: CC(C)C[C@H](NC(=O)[C@H](C)NC(=O)[C@H](C)NC(=O)[C@@H](NC(=O)[C@H](CO)NC(=O)[C@H](CC(C)C)NC(=O)[C@H](CCC(=O)O)NC(=O)[C@H](CO)NC(=O)[C@H](C)NC(=O)CC[C@H](NC(=O)CCCCCCCCCCCCCCCCCCC(=O)O)C(=O)O)[C@@H](C)O)C(=O)NCC(=O)N[C@@H](CCCNC(=N)N)C(=O)N[C@@H](CC(C)C)C(=O)N[C@@H](CO)C(=O)N[C@@H](C)C(=O)N[C@@H](CCC(=O)O)C(=O)N[C@@H](CC(C)C)C(=O)N[C@@H](Cc1c[nH]cn1)C(=O)N[C@@H](CCC(=O)O)C(=O)N[C@@H](CC(C)C)C(=O)N[C@@H](C)C(=O)N[C@H](C(=O)N[C@@H](CC(C)C)C(=O)N1CCC[C@H]1C(=O)N[C@@H](CCCNC(=N)N)C(=O)N[C@H](C(=O)N[C@@H](CCC(=O)O)C(=O)N[C@H](C(=O)NCC(=O)N[C@@H](CO)C(=O)NCC(=O)N[C@@H](CO)C(=O)N[C@@H](C)C(N)=O)[C@@H](C)O)[C@@H](C)O)[C@@H](C)O
B7: [N-terminal(C20 diacid-gGlu), des1, 30S, 31G, 33S]mimylin (peptide)
peptide: {C20 diacid-γGlu}-ASELSTAALGRLSAELHELATLPRTETGSGSS-NH2
SMILES: CC(C)C[C@H](NC(=O)[C@H](C)NC(=O)[C@H](C)NC(=O)[C@@H](NC(=O)[C@H](CO)NC(=O)[C@H](CC(C)C)NC(=O)[C@H](CCC(=O)O)NC(=O)[C@H](CO)NC(=O)[C@H](C)NC(=O)CC[C@H](NC(=O)CCCCCCCCCCCCCCCCCCC(=O)O)C(=O)O)[C@@H](C)O)C(=O)NCC(=O)N[C@@H](CCCNC(=N)N)C(=O)N[C@@H](CC(C)C)C(=O)N[C@@H](CO)C(=O)N[C@@H](C)C(=O)N[C@@H](CCC(=O)O)C(=O)N[C@@H](CC(C)C)C(=O)N[C@@H](Cc1c[nH]cn1)C(=O)N[C@@H](CCC(=O)O)C(=O)N[C@@H](CC(C)C)C(=O)N[C@@H](C)C(=O)N[C@H](C(=O)N[C@@H](CC(C)C)C(=O)N1CCC[C@H]1C(=O)N[C@@H](CCCNC(=N)N)C(=O)N[C@H](C(=O)N[C@@H](CCC(=O)O)C(=O)N[C@H](C(=O)NCC(=O)N[C@@H](CO)C(=O)NCC(=O)N[C@@H](CO)C(=O)N[C@@H](CO)C(N)=O)[C@@H](C)O)[C@@H](C)O)[C@@H](C)O

Assays:
[1] = target: T1, human amylin 3(a) receptor (human …); assay: cell-based or functional assay
[2] = target: T2, human calcitonin receptor; assay: cell-based or functional assay

Binder	hAmylin-R funct. EC50 (pM) [1] [pM]	hCTR funct. EC50 (pM) [2] [pM]
B1	55	31
{C12 diacid}-EASELSTAALGRLSAELHELATLPRTETGPESP-NH2 [[N-terminal(C12 diacid)]mimylin]	23	8
B2	50	40
B3	53	48
B4	46	37
B5	142	66
B6	67	40
B7	63	38
